In experiment [1] the target is pertussis toxin holotoxin (Bordetella pertussis) (UniProt P04977). Briefly: cell-based or functional assay.
Experiment [2] shares this target. As to the kind of experiment: competition ELISA (Friguet), 5 nM antibody, soluble PT.
The target of experiment [3] is pertussis toxin holotoxin (Bordetella pertussis), P04977. The following applies: remark: other sources report otherwise.

For four molecules, In Vitro Neutralization (nM), minimum protective concentration, CHO clustering assay and Kd results are on record in patent publication US20120244144A1 (University of Texas, published 2012).

11E6 scAb (scFv) gave an In Vitro Neutralization (nM), minimum protective concentration, CHO clustering assay in experiment [1] of 377 nM. Also, the Kd in experiment [2] is 19 nM.

For 1B7 F(ab)2, in experiment [1], the In Vitro Neutralization (nM), minimum protective concentration, CHO clustering assay stood at 15 nM.

11E6 Fab yielded an In Vitro Neutralization (nM), minimum protective concentration, CHO clustering assay in experiment [1] of 42 nM. Also, the Kd in experiment [2] was 9.3 nM.

B1: 1B7 Fab (Fab)
chain: DIQMTQSPALMSASPGEKVTMTCSASSSVSFMYWYQQKPRSSPKPWIYLTSNLPSGVPARFSGSGSGTSYSLTISSMEAEDAATYYCQQWSSHPPTFGSGTKLEIKRGGGGSGGGGSGGGGSGGGGSEVQLQQSGSELVRPGASVKLSCKASGYKFTSYWMHWVKQRPGQGLEWIGNIFPGSGSTNYDEKFNSKATLTVDTSSNTAYMQLSSLTSEDSAVYYCTRWLSGAYFDYWGQGTTLTVSSASGA
On to B1, for which, in experiment [3], the Kd was found to be 2 nM.
